Patent US20240101716A1 (LA NOVA MEDICINES DEVELOPMENT, published 2024)
Residue numbers refer to the chain shown, from its start.

B1: HSP210-03-hz51 (antibody, V domains shown)
VH: QVQLVQSGAEVKKPGSSVKVSCKASGYTFTSNYIHWVRQAPGQGLEWMGWIYPGDADTNYNQKFNGRVTLTADKSTSTAYMELSSLRSEDTAVYYCAINYGGIWFAYWGQGTLVTVSS
VL: DIQMTQSPSSLSASVGDRVTITCQASQDIGNKLIWYQQKPGKAPKLLIYYVTNLPGGVPSRFSGSGSGTDFTLTISSLQPEDFATYYCLQYKQNPLTFGQGTKLEIK
notes: humanized 300A6A6, VH v5 + VL v1; also called SIRPa IgG#2 03-hz51
B2: HSP210-02-hz52 (antibody, V domains shown)
VH: QVQLVQSGAEVKKPGASVKVSCKASGFNFEDTYMHWVRQAPGQGLEWMGRIDPADADTKYNPKFQDRVTITVDTSTNTAYMELSSLRSEDTAVYYCVRGNYVNWGQGTTVTVSS
VL: EIVLTQSPGTLSLSPGERATLSCRASSSVSSSYLYWYQQKPGQAPRLLIYSTSNLASGIPDRFSGSGSGTDYTLTISRLEPEDAAVYFCHQWYSYPRTFGGGTKVEIK
notes: humanized 248G3F6, VH v5 + VL v2; also called SIRPa IgG#1 02-hz52
B3: PD-L1/SIRPa-HN1 (bispecific antibody, human IgG4 S228P, kappa)
heavy: not shown
light: EIVLTQSPGTLSLSPGERATLSCRASSSVSSSYLYWYQQKPGQAPRLLIYSTSNLASGIPDRFSGSGSGTDYTLTISRLEPEDAAVYFCHQWYSYPRTFGGGTKVEIKRTVAAPSVFIFPPSDEQLKSGTASVVCLLNNFYPREAKVQWKVDNALQSGNSQESVTEQDSKDSTYSLSSTLTLSKADYEKHKVYACEVTHQGLSSPVTKSFNRGEC
notes: Format II: sdAb at the N-terminus of the heavy chain (248G3F6); also called PD-L1/SIRPα-HN1
B4: AS06750 sdAb (VHH)
VHH: AVQLVESGGGLVQAGDSLRLSCTASGRTFLTYAVGWFRQAPGTEREFVAGIRWSGGYTDYADSVKGRFTISRDNAKNTVYLQMNSLKPEDTAVYYCAAHRTIATIPEKYEYEYWGQGTQVTVSS
notes: His6-tagged llama sdAb
B5: AS06682 sdAb (VHH)
VHH: B4 VHH with T31S, G56E, Y57H, D62A, R100T, E107K
notes: His6-tagged llama sdAb
B6: AS06775 sdAb (VHH)
VHH: B4 VHH with A1Q, T23A, Y32L, G56S, Y57G, R100T, Q116R
notes: His6-tagged llama sdAb
B7: AS12003 sdAb (VHH)
VHH: B4 VHH with A1E, T23A, T31S, Y57S, I105V, E107N, E112D, Y113T
notes: His6-tagged llama sdAb
B8: AS06618 sdAb (VHH)
VHH: B4 VHH with A1E, G10R, Q13R, T23A, T31S, D62E, S63A
notes: His6-tagged llama sdAb
B9: AS06617 sdAb (VHH)
VHH: DVQLVESGGGLVQAGDSLRLSCAASGRTFISYAVGWFRQAPGSEREFVAGIRWNGIHTDYADSVKGRFTISRDNAKNTVTLEMTSLKPEDTAVYYCAAHRTIATIPEKYEYEYWGQGTQVTVSS
notes: His6-tagged llama sdAb
B10: AS11948 sdAb (VHH)
VHH: EVQLVESGGGLVQAGDSLRLSCVASGRTFVTYGMGWFRQAPGKEREFVAAINWSGSMTSYGDSVKGRFAISRDNAKNTVYLQMNSLKPEDTAVYYCAAALGAVVYTTREPYTYWGRGTQVTVSS
notes: His6-tagged llama sdAb
B11: AS06778 sdAb (VHH)
VHH: QVQLVESGGGLVQAGGSLKLSCAASGRTFITYAMGWFRQAPGKERELVAAISWSGSSTYSADSVKGRFTISRDNAKNTVYLQMNSLKPEDTAVYYCAAEVSARTGEHLPKLMGDYWGQGTQVTVSS
notes: His6-tagged llama sdAb
B12: AS11947 sdAb (VHH)
VHH: DVQLVESGGGLVQAGDSLRLTCSASGRTFISYAVGWFRQAPGTEREFVAGIRWNGISTDYTDSVKGRFTISRDNAKNTVYLQMNSLKPEDTAIYYCAAHRTIATIPNKYEYDHWGQGTQVTVSS
notes: His6-tagged llama sdAb
B13: AS06686 sdAb (VHH)
VHH: AVQLVESGGGLVQAGDSLRLACAASGRTFLTYALGWFRQAPGKEREFVAGVSWSGSSTKYADSVKGRFTISRDNAKNTVYMQMNSLKPEDTAVYYCAAQISAIVPISAHEYQYWGQGTQVTVSS
notes: His6-tagged llama sdAb
B14: AS06628 sdAb (VHH)
VHH: QVQLVESGGGLVQAGGSLRLSCAASGRTFITYAIGWFRQAPGKEREFVTAINWSGSMTSYADSVKGRFTISRDNNKNMVYLQMNSLKPEDTAVYYCAAHRGAIAPMTQSVYDYWGQGTQVTVSS
notes: His6-tagged llama sdAb
B15: AS06730 sdAb (VHH)
VHH: B14 VHH with T49S, N75A, M78T, S85G, M106I, T107A, D112T, Y113N
notes: His6-tagged llama sdAb
B16: AS06791 sdAb (VHH)
VHH: B14 VHH with N75A, M78T, M83I, S85G, P88S
notes: His6-tagged llama sdAb
B17: AS06703 sdAb (VHH)
VHH: B14 VHH with Q1E, Q13R, M78T, V93L, R100L, T107S
notes: His6-tagged llama sdAb
B18: PD-L1/SIRPa-LC1 (bispecific antibody, human IgG4 S228P, kappa)
heavy: not shown
light: EIVLTQSPGTLSLSPGERATLSCRASSSVSSSYLYWYQQKPGQAPRLLIYSTSNLASGIPDRFSGSGSGTDYTLTISRLEPEDAAVYFCHQWYSYPRTFGGGTKVEIKRTVAAPSVFIFPPSDEQLKSGTASVVCLLNNFYPREAKVQWKVDNALQSGNSQESVTEQDSKDSTYSLSSTLTLSKADYEKHKVYACEVTHQGLSSPVTKSFNRGECGGGGSGGGGSGGGGSEVQLVESGGGLVQPGGSLRLSCAASGRTFVTYGMGWFRQAPGKGREFVSAISWSGSMTSYGDSVKGRFTISRDNAKNTLYLQMNSLRPEDTAVYYCAAALGAVVYTTREPYTYWGQGTLVTVSS
B19: PD-L1/SIRPa-LN1 (bispecific antibody, human IgG4 S228P, kappa)
heavy: not shown
light: EVQLVESGGGLVQPGGSLRLSCAASGRTFVTYGMGWFRQAPGKGREFVSAISWSGSMTSYGDSVKGRFTISRDNAKNTLYLQMNSLRPEDTAVYYCAAALGAVVYTTREPYTYWGQGTLVTVSSGGGGSGGGGSGGGGSEIVLTQSPGTLSLSPGERATLSCRASSSVSSSYLYWYQQKPGQAPRLLIYSTSNLASGIPDRFSGSGSGTDYTLTISRLEPEDAAVYFCHQWYSYPRTFGGGTKVEIKRTVAAPSVFIFPPSDEQLKSGTASVVCLLNNFYPREAKVQWKVDNALQSGNSQESVTEQDSKDSTYSLSSTLTLSKADYEKHKVYACEVTHQGLSSPVTKSFNRGEC
B20: PD-L1/SIRPa-HC2 (bispecific antibody, human IgG4 S228P, kappa)
heavy: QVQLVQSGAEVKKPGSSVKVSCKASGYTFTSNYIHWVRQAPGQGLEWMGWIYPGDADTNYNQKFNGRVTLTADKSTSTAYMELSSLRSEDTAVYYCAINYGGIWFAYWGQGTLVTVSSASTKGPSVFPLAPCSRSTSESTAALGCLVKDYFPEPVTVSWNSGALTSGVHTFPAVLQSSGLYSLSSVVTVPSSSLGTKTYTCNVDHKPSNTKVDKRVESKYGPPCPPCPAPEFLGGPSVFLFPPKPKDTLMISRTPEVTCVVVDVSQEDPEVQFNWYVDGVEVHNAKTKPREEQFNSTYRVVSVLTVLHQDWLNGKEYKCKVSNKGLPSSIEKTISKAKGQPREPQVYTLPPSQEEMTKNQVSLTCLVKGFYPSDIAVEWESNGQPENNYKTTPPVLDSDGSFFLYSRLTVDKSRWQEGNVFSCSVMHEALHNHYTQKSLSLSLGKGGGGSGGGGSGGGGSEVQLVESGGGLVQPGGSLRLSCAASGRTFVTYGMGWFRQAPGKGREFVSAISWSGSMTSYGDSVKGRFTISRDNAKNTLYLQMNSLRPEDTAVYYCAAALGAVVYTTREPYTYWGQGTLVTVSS
light: DIQMTQSPSSLSASVGDRVTITCQASQDIGNKLIWYQQKPGKAPKLLIYYVTNLPGGVPSRFSGSGSGTDFTLTISSLQPEDFATYYCLQYKQNPLTFGQGTKLEIKRTVAAPSVFIFPPSDEQLKSGTASVVCLLNNFYPREAKVQWKVDNALQSGNSQESVTEQDSKDSTYSLSSTLTLSKADYEKHKVYACEVTHQGLSSPVTKSFNRGEC

What follows are binders tested against T1, recombinant human SIRPα variant 2 protein (human, UniProt P78324 31-370, limits assumed) (assay: SPR Biacore 8K, antibody captured, antigen analyte).
T1 construct: polymorphic variant 2; also called SIRPα v2; hSIRPαV2
T1 sequence (P78324 other isoform, or with tags, fused parts or gaps mutant limits assumed): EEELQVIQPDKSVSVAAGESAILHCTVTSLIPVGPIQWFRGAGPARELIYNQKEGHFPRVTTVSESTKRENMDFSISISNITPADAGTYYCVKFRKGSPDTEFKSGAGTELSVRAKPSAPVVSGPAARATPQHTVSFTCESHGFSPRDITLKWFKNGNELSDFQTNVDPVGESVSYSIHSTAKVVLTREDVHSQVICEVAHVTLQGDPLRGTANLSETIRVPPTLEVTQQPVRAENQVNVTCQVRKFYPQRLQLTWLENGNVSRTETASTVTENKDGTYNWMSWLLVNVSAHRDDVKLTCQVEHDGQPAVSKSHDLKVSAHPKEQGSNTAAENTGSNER
Description: The binding kinetics assay of antibody to antigen was performed using Biacore 8K system through human antibody capture approach. The […] Fc lgG were immobilized on CM5 sensor chip according to the manufactory's instruction. The test antibody was injected and captured by the immobilized anti-human Fc lgG. […] The assay system was regenerated by injection of 10 mM Glycine-HCl pH 1.5 for 30 seconds. The running buffer was HBS-EP+ (10 mM HEPES, pH 7.4, 150 mM NaCl, 3 mM EDTA and 0.05% P20). The assay temperature was 25° C., and the association and dissociation time were 180 and 600 seconds, respectively.
B1 was tested, and the Kd was 3.03 nM, the koff was 0.001 s⁻¹ and the kon was 331000 M⁻¹ s⁻¹.
With B2 the Kd was 7.4 nM, the koff was 0.00247 s⁻¹ and the kon was 333000 M⁻¹ s⁻¹.

Each binder was assayed against T2, PD-L1 expressed on cells (UniProt Q9NZQ7 19-290, limits assumed) (assay: FACS binding test on PD-L1 cell line, Geom.Mean; unit from the axis log(nm)).
T2 construct: whole, on cells
T2 sequence (Q9NZQ7 19-290 limits assumed): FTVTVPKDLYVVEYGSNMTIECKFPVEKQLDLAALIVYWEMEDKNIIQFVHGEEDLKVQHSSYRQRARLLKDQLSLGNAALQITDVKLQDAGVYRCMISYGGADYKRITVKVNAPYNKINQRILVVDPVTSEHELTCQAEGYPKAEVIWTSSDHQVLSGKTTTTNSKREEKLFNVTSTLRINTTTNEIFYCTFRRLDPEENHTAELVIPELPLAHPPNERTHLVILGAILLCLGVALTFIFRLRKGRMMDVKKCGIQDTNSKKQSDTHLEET
B3 gave an EC50 of 0.311 nM.

These binders were tested against human PD-L1 on CHO-K1 cells (human, UniProt Q9NZQ7 19-290) (assay: cell-based or functional assay).
human PD-L1 on CHO-K1 cells, sequence (Q9NZQ7 19-290): as the sequence (Q9NZQ7 19-290 limits assumed) above
With B4 the “EC50 of PD-L1-based blockade assay (luciferase reporter)” value (from here on “EC50 of PD-L1-based blockade assay”) was 33.6 nM.
B5 was tested, and the “EC50 of PD-L1-based blockade assay” value was 42 nM.
B6 was tested, and the “EC50 of PD-L1-based blockade assay” value was 75.5 nM.
With B7 the “EC50 of PD-L1-based blockade assay” value was 96.2 nM.
With B8 the “EC50 of PD-L1-based blockade assay” value was 44.5 nM.
For B9, the “EC50 of PD-L1-based blockade assay” value was 63.8 nM.
In the case of B10, the “EC50 of PD-L1-based blockade assay” value is reported as 25.2 nM.
For B11, the “EC50 of PD-L1-based blockade assay” value was 20.1 nM.
For B12, the “EC50 of PD-L1-based blockade assay” value was 77.2 nM.
B13 was tested, and the “EC50 of PD-L1-based blockade assay” value was 352 nM.
B14 was tested, and the “EC50 of PD-L1-based blockade assay” value was 24.2 nM.
In the case of B15, the “EC50 of PD-L1-based blockade assay” value is reported as 17.2 nM.
With B16 the “EC50 of PD-L1-based blockade assay” value was 36.5 nM.
For B17, the “EC50 of PD-L1-based blockade assay” value was 15 nM.

These binders were tested against T3, recombinant human PD-L1 His protein (human, UniProt Q9NZQ7 19-239) (assay: SPR Biacore T200, PD-L1 His on chip, sdAb analyte).
T3 construct: not shown: His tag
T3 sequence (Q9NZQ7 19-239 limits assumed): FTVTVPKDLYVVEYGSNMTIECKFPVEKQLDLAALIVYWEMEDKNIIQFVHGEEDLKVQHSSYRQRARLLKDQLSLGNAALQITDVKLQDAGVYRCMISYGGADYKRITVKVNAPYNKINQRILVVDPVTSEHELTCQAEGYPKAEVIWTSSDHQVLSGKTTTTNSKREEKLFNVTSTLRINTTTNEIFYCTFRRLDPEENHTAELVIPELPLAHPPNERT
Description: Affinity constant (Kd) of each sdAb and HCAb was determined by surface plasmon resonance (SPR) on a BIAcore T200 instrument. Briefly, PD-L1 His was amine-coupled to a CMS sensor chip at a density of no higher than 100 RU. […] Flow rate was 30 μl/min in all experiments. Association and dissociation phases were 5 and 10 min, respectively. The chip was regenerated using Glycine/HCl pH 1.5. Binding curves at different concentrations of sdAbs and HCAbs were used to calculate the kinetic parameters kₒₙ, koff and KD.
Binder B4 has a Kd of 0.109 nM, a koff of 0.000223 s⁻¹ and a kon of 2.05e+06 M⁻¹ s⁻¹.
B5 showed a Kd of 0.203 nM, a koff of 0.000342 s⁻¹ and a kon of 1.68e+06 M⁻¹ s⁻¹.
In the case of B6, the Kd is reported as 0.156 nM, the koff is reported as 0.000247 s⁻¹ and the kon is reported as 1.58e+06 M⁻¹ s⁻¹.
Binder B7 has a Kd of 0.56 nM, a koff of 0.00155 s⁻¹ and a kon of 2.76e+06 M⁻¹ s⁻¹.
For B8, the Kd was 0.17 nM, the koff was 0.000245 s⁻¹ and the kon was 1.44e+06 M⁻¹ s⁻¹.
With B9 the Kd was 0.249 nM, the koff was 0.000464 s⁻¹ and the kon was 1.86e+06 M⁻¹ s⁻¹.
B10 was tested, and the Kd was 0.167 nM, the koff was 0.000394 s⁻¹ and the kon was 2.37e+06 M⁻¹ s⁻¹.
B11 was tested, and the Kd was 0.0233 nM, the koff was 4.42e-05 s⁻¹ and the kon was 1.9e+06 M⁻¹ s⁻¹.
Binder B12 has a Kd of 0.617 nM, a koff of 0.00118 s⁻¹ and a kon of 1.92e+06 M⁻¹ s⁻¹.
For B13, the Kd was 0.346 nM, the koff was 0.000965 s⁻¹ and the kon was 2.79e+06 M⁻¹ s⁻¹.
In the case of B14, the Kd is reported as 0.0526 nM, the koff is reported as 0.000215 s⁻¹ and the kon is reported as 4.1e+06 M⁻¹ s⁻¹.
With B15 the Kd was 0.0195 nM, the koff was 0.000139 s⁻¹ and the kon was 7.11e+06 M⁻¹ s⁻¹.
B16 was tested, and the Kd was 0.153 nM, the koff was 0.000239 s⁻¹ and the kon was 1.56e+06 M⁻¹ s⁻¹.
In the case of B17, the Kd is reported as 0.0387 nM, the koff is reported as 6.96e-05 s⁻¹ and the kon is reported as 1.8e+06 M⁻¹ s⁻¹.

Each binder was assayed against PD-L1 (blocking assay of Example 11) (UniProt Q9NZQ7 19-239, limits assumed) (assay: cell-based or functional assay).
PD-L1 (blocking assay of Example 11), sequence (Q9NZQ7 19-239 limits assumed): as above
B18 was tested, and the “EC50, luminescence (RLU) in the PD-1/PD-L1 Blockade Assay” value (from here on “EC50, luminescence (RLU)”) was 1.36 nM.
For B19, the “EC50, luminescence (RLU)” value was 1.13 nM.
In the case of B20, the “EC50, luminescence (RLU)” value is reported as 1.28 nM.
